The target of data set [1] is T1, pro-caspase-3 ([35S]-labeled).
T1 sequence (P42574 1-277, species assumed, looked up): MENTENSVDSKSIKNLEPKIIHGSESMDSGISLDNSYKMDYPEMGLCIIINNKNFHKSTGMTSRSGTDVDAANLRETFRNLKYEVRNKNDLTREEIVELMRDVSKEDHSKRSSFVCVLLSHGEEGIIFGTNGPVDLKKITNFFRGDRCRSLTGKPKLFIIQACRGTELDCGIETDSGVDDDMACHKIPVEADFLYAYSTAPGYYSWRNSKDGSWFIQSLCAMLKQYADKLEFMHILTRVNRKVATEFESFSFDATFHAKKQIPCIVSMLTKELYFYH

For data set [2], the target named is pro-IL-1β.
In data set [3] the target is poly(ADP-ribose) polymerase.
The target in data set [4] is T2, pro-caspase-12 (caspase-12L, full-length precursor, 419 residues, 48 kDa).
T2 chain: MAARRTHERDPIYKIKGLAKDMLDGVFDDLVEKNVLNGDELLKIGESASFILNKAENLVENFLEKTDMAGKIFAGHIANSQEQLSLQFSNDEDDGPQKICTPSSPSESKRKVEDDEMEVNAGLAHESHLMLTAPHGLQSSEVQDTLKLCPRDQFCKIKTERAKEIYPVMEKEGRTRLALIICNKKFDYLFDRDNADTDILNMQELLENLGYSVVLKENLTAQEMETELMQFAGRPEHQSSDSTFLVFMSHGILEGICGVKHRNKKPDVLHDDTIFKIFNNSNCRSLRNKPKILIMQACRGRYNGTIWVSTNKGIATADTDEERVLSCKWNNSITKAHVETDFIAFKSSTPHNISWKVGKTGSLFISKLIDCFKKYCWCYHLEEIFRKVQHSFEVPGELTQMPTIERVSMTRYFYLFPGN

Data set [5] concerns the target T3, pro-caspase-2 ([35S]-labeled).
T3 sequence (P42575 2-452, species assumed, looked up): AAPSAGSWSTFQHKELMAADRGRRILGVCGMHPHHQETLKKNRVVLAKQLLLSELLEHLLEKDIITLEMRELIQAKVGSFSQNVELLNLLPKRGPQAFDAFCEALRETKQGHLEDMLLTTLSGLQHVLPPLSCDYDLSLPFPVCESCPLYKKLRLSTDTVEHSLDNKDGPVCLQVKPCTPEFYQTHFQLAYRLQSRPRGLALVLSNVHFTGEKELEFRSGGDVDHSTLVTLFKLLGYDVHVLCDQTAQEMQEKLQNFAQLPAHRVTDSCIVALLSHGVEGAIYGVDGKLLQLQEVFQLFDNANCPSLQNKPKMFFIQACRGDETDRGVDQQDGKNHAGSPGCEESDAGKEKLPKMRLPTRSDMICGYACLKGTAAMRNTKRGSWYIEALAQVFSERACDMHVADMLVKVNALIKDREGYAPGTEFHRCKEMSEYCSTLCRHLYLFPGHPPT

The target in data set [6] is pro-ICE ([35S]-labeled).
The target of data set [7] is T4, caspase-12Δ (Gly95-Asn419 of caspase-12L, with an artificial initiation codon), [35S]-labeled.
T4 chain: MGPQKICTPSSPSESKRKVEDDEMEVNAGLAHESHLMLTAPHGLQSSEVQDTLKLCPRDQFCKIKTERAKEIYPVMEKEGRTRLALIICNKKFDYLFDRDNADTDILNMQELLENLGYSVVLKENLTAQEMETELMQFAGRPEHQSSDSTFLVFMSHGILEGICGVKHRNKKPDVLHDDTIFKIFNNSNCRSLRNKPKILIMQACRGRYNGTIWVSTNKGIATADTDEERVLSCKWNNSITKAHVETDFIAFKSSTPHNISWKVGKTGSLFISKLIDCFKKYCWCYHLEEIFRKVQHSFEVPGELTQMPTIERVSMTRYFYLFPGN

Data set [8] is described as follows: Protease activity of full-length recombinant caspase-12 from E. coli. As to conditions: expressed and purified from E. coli. In kind it is biochemical.
Data set [9] concerns rat embryonic fibroblast cells. Put plainly: Cell death induced by transient overexpression of lacZ fusion constructs, X-gal staining. Type of data set: cell-based. The note with it: primary rat embryonic fibroblasts, FIG. 4C. The text has this:
(§1) FIGS. 4A-4C. Cell death induced by overexpression of caspase-12. […] The round cells expressing the casp-12L-lacZ fusion proteins show condensed and fragmented nuclei. […] The data shown are the percentage of round blue cells among total number of blue cells counted. In each transfection, over 200 blue cells were randomly chosen and counted. The data of Rat-1 cells collected from at least three independent experiments. The constructs used were: casp-12L-lacZ, casp-12S-lacZ, casp-12Δ-lacZ, ICE-lacZ, lacZ. Rat embryonic fibroblast cells (REF) were also transfected with either casp-12L-lacZ or lacZ.
Rat-1, rat embryonic fibroblast cells, NG108-15, HeLa and COS-1 were maintained in culture at 37° C. with 5% CO2 in Dulbecco's modified Eagle's medium containing 10% (v/v) fetal bovine serum (BioWhittaker) and 50 units/ml penicillin and 50 μg/ml streptomycin (Sigma). The day before transfection, cells were seeded at a density of 1.3×10^4 cells/cm^2. […] The expression of chimeric genes in cells was detected by staining of cells with 5-bromo-4-chloro-3-indolyl β-D-galactoside (X-gal) as previously described (Miura, M., et al., Cell 75:653-660 (1993); Kumar, S., et al., Genes and Development 8:1613-1626 (1994); Wang, L., et al., Cell 78:739-750 (1994)). […]

Data set [10] has as its system COS-1 cells. Put plainly: Cell type specificity of cell killing, lacZ fusion transfection. Type of data set: cell-based, monkey. The note with it: COS-1, FIG. 6. Here is the method:
(§2) FIG. 6. The cell type specificity of caspase-12-induced cell killing activity. NG108-15, HeLa and COS-1 cells were transfected with casp-12L-lacZ, casp-12S-LacZ, lacZ or ICE-lacZ. Staining of transfectants were done and the data are presented as in FIG. 4C.
(§3) Rat-1, rat embryonic fibroblast cells, NG108-15, HeLa and COS-1 were maintained in culture at 37° C. with 5% CO2 in Dulbecco's modified Eagle's medium containing 10% (v/v) fetal bovine serum (BioWhittaker) and 50 units/ml penicillin and 50 μg/ml streptomycin (Sigma). The day before transfection, cells were seeded at a density of 1.3×10^4 cells/cm^2. Expression constructs were transferred to cells with either calcium phosphate or lipofectamine (GIBCO BRL) as previously described (Miura, M., et al., Cell 75:653-660 (1993); Kumar, S., et al., Genes and Development 8:1613-1626 (1994); Wang, L., et al., Cell 78:739-750 (1994)). The expression of chimeric genes in cells was detected by staining of cells with 5-bromo-4-chloro-3-indolyl β-D-galactoside (X-gal) as previously described (Miura, M., et al., Cell 75:653-660 (1993); Kumar, S., et al., Genes and Development 8:1613-1626 (1994); Wang, L., et al., Cell 78:739-750 (1994)). […]

Data set [11] deals with Rat-1 cells. Put plainly: Cell death induced by transient overexpression of lacZ fusion constructs, X-gal staining. In kind it is cell-based. The note with it: lacZ fusion construct, 24 hr after transfection.
Excerpt: as §1
To examine if expression of caspase-12 induces apoptosis, a transient expression system was used to overexpress caspase-12 in mammalian cells. […] Transfected cells are easily detected by staining with X-gal because of the β-galactosidase activity of lacZ. Expression constructs of casp-12L and casp-12S fused with lacZ gene in pcDNA3 vector, which contains the cytomegalovirus (CMV) promoter, were generated. These expression constructs were introduced into Rat-1 cells by transfection, and the expression of the genes were examined 24 hr after transfection using X-gal reaction.
Rat-1, rat embryonic fibroblast cells, NG108-15, HeLa and COS-1 were maintained in culture at 37° C. with 5% CO2 in Dulbecco's modified Eagle's medium containing 10% (v/v) fetal bovine serum (BioWhittaker) and 50 units/ml penicillin and 50 μg/ml streptomycin (Sigma). The day before transfection, cells were seeded at a density of 1.3×10^4 cells/cm^2. Expression constructs were transferred to cells with either calcium phosphate or lipofectamine (GIBCO BRL) as previously described (Miura, M., et al., Cell 75:653-660 (1993); Kumar, S., et al., Genes and Development 8:1613-1626 (1994); Wang, L., et al., Cell 78:739-750 (1994)). The expression of chimeric genes in cells was detected by staining of cells with 5-bromo-4-chloro-3-indolyl β-D-galactoside (X-gal) as previously described (Miura, M., et al., Cell 75:653-660 (1993); Kumar, S., et al., Genes and Development 8:1613-1626 (1994); Wang, L., et al., Cell 78:739-750 (1994)). Immunostaining of transfected cells was done as previously described using mouse monoclonal anti-lacZ antibody (Miura, M., et al., Cell 75:653-660 (1993); Kumar, S., et al., Genes and Development 8:1613-1626 (1994); Wang, L., et al., Cell 78:739-750 (1994)).

In data set [12] the test system is HeLa. Put plainly: Cell type specificity of cell killing, lacZ fusion transfection. As to conditions: FIG. 6. Type of data set: cell-based. Here is the method: as §2, §3
Data set [13] relates to NG108-15. The description is as above. In kind it is cell-based. As to conditions: NG108-15, FIG. 6. Here is the method: as §2, §3
The test system of data set [14] is Rat-1/bcl-2. Put plainly: Effect of cell death suppressor bcl-2 on caspase-12 killing activity. In kind it is cell-based. The note with it: casp-12L-lacZ in Rat-1/bcl-2 stable transfectant. Here is the method:
FIGS. 5A-5B. Effect of cell death suppressors on the killing activity of caspase-12. […] Cell death was assayed as described in FIG. 4C. […] The data from transfection of the parental cell line, Rat-1 (FIG. 4C), are included in the figures for comparison. The lacZ construct was also used for transfection as a control.
To determine if expression of bcl-2 and crmA can inhibit apoptosis induced by casp-12 overexpression, casp-12L-lacZ fusion construct was transfected into stable cell lines of Rat-1 that overexpresses either bcl-2 or crmA (Miura, M., et al., Cell 75:653-660 (1993)). Cell death was assayed as described above (Example 3). […] The magnitude of the bcl-2 suppression against toxicity of casp-12 overexpression was about 10% (60% for Rat-1, 50% for Rat-1/bcl-2) which is much smaller than that observed for ICE and casp-2 (FIG. 5A; Wang, L., et al., Cell 78:739-750 (1994)).

Sequence of pro-IL-1β (P01584 whole entry): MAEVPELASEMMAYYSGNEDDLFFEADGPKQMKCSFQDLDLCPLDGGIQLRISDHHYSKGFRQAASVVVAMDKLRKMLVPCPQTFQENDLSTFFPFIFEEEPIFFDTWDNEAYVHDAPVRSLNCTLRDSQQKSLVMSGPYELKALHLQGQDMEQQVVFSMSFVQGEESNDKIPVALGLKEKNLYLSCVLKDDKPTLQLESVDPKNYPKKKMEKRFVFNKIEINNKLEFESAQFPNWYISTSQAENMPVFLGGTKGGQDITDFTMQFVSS
Sequence of pro-ICE ([35S]-labeled) (P29466 whole entry): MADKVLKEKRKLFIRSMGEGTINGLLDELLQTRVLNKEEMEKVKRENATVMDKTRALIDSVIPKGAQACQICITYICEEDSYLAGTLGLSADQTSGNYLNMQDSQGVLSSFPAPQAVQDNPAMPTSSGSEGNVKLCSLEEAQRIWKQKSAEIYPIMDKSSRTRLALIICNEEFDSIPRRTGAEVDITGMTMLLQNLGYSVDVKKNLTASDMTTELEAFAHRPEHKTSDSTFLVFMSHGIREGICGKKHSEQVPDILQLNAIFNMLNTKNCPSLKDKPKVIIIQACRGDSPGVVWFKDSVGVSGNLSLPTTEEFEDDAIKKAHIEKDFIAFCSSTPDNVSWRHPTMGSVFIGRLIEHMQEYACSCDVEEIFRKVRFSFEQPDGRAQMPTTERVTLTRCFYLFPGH

B1: His-tagged caspase-12Δ2 (residues 145-419 of caspase-12L), partially purified from E. coli, autoprocessed into p24 and p10 (protein)
chain 1: TLKLCPRDQFCKIKTERAKEIYPVMEKEGRTRLALIICNKKFDYLFDRDNADTDILNMQELLENLGYSVVLKENLTAQEMETELMQFAGRPEHQSSDSTFLVFMSHGILEGICGVKHRNKKPDVLHDDTIFKIFNNSNCRSLRNKPKILIMQACRGRYNGTIWVSTNKGIATAD
chain 2: TDEERVLSCKWNNSITKAHVETDFIAFKSSTPHNISWKVGKTGSLFISKLIDCFKKYCWCYHLEEIFRKVQHSFEVPGELTQMPTIERVSMTRYFYLFPGN
On to B1, for which the “in vitro cleavage of [35S]-labeled pro-enzyme by the partially purified protease” value in data set [1] was “only faint bands of cleavage products were visible”; in [4], “can efficiently process pro-caspase-12 (48 kDa) into fragments”; in data set [5] it was “only faint bands of cleavage products were visible”; in data set [6] it was “only faint bands of cleavage products were visible”. The “in vitro cleavage by the purified protease” value in data set [2] was “showed little activity for cleavage of pro-IL-1β and poly(ADP-ribose) polymerase”; in data set [3] it was “showed little activity for cleavage of pro-IL-1β and poly(ADP-ribose) polymerase”. Moreover, in data set [7], the “in vitro cleavage of [35S]-labeled protein by the partially purified protease” value is “the 38 kDa polypeptide was cleaved into 26 kDa and 13 kDa fragments”.

B2: caspase-12L: long form of mouse caspase-12, 419 amino acid residues (SEQ ID NO:2); expressed as lacZ fusion (protein)
chain: MAARRTHERDPIYKIKGLAKDMLDGVFDDLVEKNVLNGDELLKIGESASFILNKAENLVENFLEKTDMAGKIFAGHIANSQEQLSLQFSNDEDDGPQKICTPSSPSESKRKVEDDEMEVNAGLAHESHLMLTAPHGLQSSEVQDTLKLCPRDQFCKIKTERAKEIYPVMEKEGRTRLALIICNKKFDYLFDRDNADTDILNMQELLENLGYSVVLKENLTAQEMETELMQFAGRPEHQSSDSTFLVFMSHGILEGICGVKHRNKKPDVLHDDTIFKIFNNSNCRSLRNKPKILIMQACRGRYNGTIWVSTNKGIATADTDEERVLSCKWNNSITKAHVETDFIAFKSSTPHNISWKVGKTGSLFISKLIDCFKKYCWCYHLEEIFRKVQHSFEVPGELTQMPTIERVSMTRYFYLFPGN
modifications: lacZ fusion
On to B2, for which the “processing and protease activity in vitro” value in data set [8] is “without any processing and protease activity”. Moreover, in data set [9], the “transfected cells round and small” value was “about 60%”. Further, the “apoptosis induced by casp-12L expression” value in [10], in data set [12] and in data set [13] was “resistant to apoptosis” each time. The “percentage of cell death (round blue cells among total blue cells)” value was “about 60%” in data set [11] and 60% in [11] (listed as casp-12L-lacZ). The “percentage of cell death” value in data set [14] was 50%.

The record behind these values is patent publication US6642368B1, “Programmed cell death and caspase-12” (The General Hospital Corporation, priority 1998, dated 2003).
